The values that follow come from patent US20150315289A1 (published 2015).

The assay addresses MUC1 (human, UniProt P15941 24-1255, limits assumed). Put plainly: immunofluorescence co-localisation on human carcinoma cell lines; MUC5AC siRNA knockdown.

B1: humanized PAM4 (hPAM4) IgG (antibody, V domains shown)
VH: QVQLQQSGAEVKKPGASVKVSCEASGYTFPSYVLHWVKQAPGQGLEWIGYINPYNDGTQYNEKFKGKATLTRDTSINTAYMELSRLRSDDTAVYYCARGFGGSYGFAYWGQGTLVTVSS
VL: DIQLTQSPSSLSASVGDRVTMTCSASSSVSSSYLYWYQQKPGKAPKLWIYSTSNLASGVPARFSGSGSGTDFTLTISSLQPEDSASYFCHQWNRYPYTFGGGTRLEIKR
notes: humanized IgG1 kappa; used HRP-conjugated in some ELISAs and blots; also called clivatuzumab; HRP-hPAM4
On to B1, for which the binding result is “no binding”.
